Experimental data: patent US20140112930A1 (published 2014)

T1: Monomeric hAng-2FD (human, UniProt O15123 282-496)
T1 construct: also called fibrinogen-like domain of human Ang2; Human Ang-2FD
T1 sequence: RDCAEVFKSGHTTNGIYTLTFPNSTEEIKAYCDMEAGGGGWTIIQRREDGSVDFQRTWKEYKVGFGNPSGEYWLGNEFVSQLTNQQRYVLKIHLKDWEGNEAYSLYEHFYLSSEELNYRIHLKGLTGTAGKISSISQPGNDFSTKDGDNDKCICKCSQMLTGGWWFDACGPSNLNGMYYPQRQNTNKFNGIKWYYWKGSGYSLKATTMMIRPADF

T2: wild-type human Ang-2 (hAng-2-WT) (human, UniProt O15123 19-496)
T2 construct: called full-length wild-type; also called Full-length wild-type human Ang-2
T2 sequence: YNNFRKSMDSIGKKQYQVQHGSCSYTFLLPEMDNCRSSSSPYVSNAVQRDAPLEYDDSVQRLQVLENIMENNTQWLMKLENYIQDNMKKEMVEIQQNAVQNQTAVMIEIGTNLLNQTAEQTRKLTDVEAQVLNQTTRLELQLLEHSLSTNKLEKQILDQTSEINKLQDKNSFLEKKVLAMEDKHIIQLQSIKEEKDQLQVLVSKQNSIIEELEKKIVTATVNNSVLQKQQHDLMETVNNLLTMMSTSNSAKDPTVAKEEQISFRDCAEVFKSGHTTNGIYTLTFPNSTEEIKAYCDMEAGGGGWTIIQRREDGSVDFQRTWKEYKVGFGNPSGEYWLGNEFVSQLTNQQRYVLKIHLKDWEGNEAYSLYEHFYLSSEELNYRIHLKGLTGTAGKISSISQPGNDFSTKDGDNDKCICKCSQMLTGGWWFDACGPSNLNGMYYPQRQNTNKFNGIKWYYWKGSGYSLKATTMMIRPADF


Legend:
[1] = molecular target: T3, human bow-Ang-2 tetrameric construct (hBA2) (human); assay: SPR, captured Ab
T3 construct: also called human BA2; hBA2-hIgG1

Monomeric hAng-2FD = molecular target: T1, Monomeric hAng-2FD; assay: SPR, captured Ab
[2] = molecular target: T2, wild-type human Ang-2 (hAng-2-WT); assay: SPR, captured Ab
[3] = molecular target: T4, Dimeric Human Ang-2FD conjugated to human IgG1 (human); assay: SPR, captured Ab, RT
T4 construct: also called Human Ang-2FD-hFc; hAng-2FD-hFc
Protocol: (§1) Antibody was captured on a goat anti-mouse IgG polyclonal antibody surface, a goat anti-human κ polyclonal antibody (Southern Biotech, Birmingham, Ala.) surface or a goat anti-human IgG polyclonal antibody (Jackson Immuno Research Lab, West Grove, Pa.) surface created through direct amine coupling to a BIACORE™ CM5 sensor chip to form a captured antibody surface. […] Antigen-antibody binding and dissociation were monitored in real time at room temperature. Kinetic analysis was performed to calculate KD and half-life of antigen/antibody complex dissociation.

[4] = molecular target: T5, Dimeric Mouse Ang-2FD conjugated to human IgG1 (mouse (Mus musculus); human); assay: SPR, captured Ab, RT
T5 construct: also called Mouse Ang-2FD-hFc
Protocol: as §1

[5] = molecular target: T6, Dimeric Monkey Ang-2FD conjugated to human IgG1 (monkey (Macca fascicularis); human); assay: SPR, captured Ab, RT
T6 construct: also called Monkey Ang-2FD-hFc
Protocol: as §1

T6 sequence (chain, as listed by the source limits assumed): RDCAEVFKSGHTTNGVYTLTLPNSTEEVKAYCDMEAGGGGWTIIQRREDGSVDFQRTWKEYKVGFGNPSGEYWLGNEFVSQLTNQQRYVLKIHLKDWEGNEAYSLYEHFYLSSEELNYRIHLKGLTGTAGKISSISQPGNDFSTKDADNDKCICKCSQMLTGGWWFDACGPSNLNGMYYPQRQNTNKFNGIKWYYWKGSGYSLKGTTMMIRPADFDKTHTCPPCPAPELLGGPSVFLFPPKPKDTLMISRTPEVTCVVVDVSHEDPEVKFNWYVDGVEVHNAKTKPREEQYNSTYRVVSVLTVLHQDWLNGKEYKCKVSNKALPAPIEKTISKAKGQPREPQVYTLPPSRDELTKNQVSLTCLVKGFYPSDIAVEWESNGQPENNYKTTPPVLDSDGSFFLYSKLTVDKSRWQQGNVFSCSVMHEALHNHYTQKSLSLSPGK
T3 sequence (chain, as listed by the source limits assumed): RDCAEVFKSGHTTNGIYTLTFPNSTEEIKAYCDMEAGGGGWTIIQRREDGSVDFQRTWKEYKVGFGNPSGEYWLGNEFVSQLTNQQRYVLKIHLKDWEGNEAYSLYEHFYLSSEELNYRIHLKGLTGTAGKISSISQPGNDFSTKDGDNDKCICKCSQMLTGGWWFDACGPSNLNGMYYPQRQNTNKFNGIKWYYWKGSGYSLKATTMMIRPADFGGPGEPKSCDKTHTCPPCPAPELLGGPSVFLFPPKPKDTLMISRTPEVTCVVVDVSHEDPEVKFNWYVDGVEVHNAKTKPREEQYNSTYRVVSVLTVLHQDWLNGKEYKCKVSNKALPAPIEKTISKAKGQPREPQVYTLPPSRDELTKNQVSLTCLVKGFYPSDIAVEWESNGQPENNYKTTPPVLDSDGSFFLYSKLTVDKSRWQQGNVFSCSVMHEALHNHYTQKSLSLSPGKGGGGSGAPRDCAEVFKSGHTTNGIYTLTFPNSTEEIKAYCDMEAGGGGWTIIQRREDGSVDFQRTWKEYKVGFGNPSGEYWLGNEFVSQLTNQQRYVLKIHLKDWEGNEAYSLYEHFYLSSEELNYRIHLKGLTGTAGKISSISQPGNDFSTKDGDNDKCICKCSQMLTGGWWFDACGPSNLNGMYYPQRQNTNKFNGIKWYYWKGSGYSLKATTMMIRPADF
T5 sequence (chain, as listed by the source limits assumed): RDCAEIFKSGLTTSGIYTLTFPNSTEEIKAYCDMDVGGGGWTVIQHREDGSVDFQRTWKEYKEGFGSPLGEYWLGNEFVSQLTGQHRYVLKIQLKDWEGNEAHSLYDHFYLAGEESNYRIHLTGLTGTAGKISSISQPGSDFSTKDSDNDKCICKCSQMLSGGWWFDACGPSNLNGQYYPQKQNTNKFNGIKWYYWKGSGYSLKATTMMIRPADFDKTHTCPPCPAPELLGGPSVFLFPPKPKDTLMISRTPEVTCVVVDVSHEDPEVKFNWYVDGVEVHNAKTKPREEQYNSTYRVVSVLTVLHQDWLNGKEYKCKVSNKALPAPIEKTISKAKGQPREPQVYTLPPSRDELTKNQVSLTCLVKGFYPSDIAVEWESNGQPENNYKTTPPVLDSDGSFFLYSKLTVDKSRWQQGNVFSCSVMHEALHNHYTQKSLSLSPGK

| Binder | Kd [1] [nM] | T1/2 [1] [h] | Kd (Monomeric hAng-2FD) [nM] | T1/2 (Monomeric hAng-2FD) [h] | Kd [2] [nM] | T1/2 [2] [h] | Kd [3] [nM] | T1/2 [3] [h] | Kd [4] [nM] | T1/2 [4] [h] | Kd [5] [nM] | T1/2 [5] [h] |
| --- | --- | --- | --- | --- | --- | --- | --- | --- | --- | --- | --- | --- |
| H1H728N (antibody, V domains shown) VH: EVQLVESGGDLVQPGGSLRLSCTASGFTFSKYWMTWVRQAPGRGLEWVANIKEDGNEKYFLDSVKGRFTISRDNAKDLLFLQMNSLRGEDTAVYYCVRDRGIEVAGPFDYWGQGTLVTVSS VL: DIQMTQSPSTLSASVGDRVTVTCRASQTIINWLAWYQQKPGKAPKLLISKASSLESGVPSRFSGSGSGTEFTLTISSLQPDDFATYYCQQYNRYWTFGQGTMVEIK | 0.0418 | 3.08 | 1.18 | 0.0977 | 0.043 | 9.43 | 0.162 | 1.35 | 5.76 | 0.333 | 2 | 1.28 |
| H1H691P (antibody, V domains shown) VH: EVQLVESGGGLVQPGRSLRLSCAASGFTFDDYAMHWVRQAPGKGLEWVSGISWNSGDIGYADSVKGRFTISRDNAKNSLYLQMNSLRAQDTALYYCAKAYGDYYYFYGMDVWGQGTTVTVS VL: EIVLTQSPGTLSLSPGERATLSCRASQSVSSSYLAWYQQKPGQAPRLLIFSASSRATGIPDRFSGSGSGTDFTLTISRLEPEDFAVYYCQQYDNSLTFGGGTKVEIK |  |  |  |  |  |  | 0.22 | 0.642 | 0.22 | 0.73 | 0.29 | 0.683 |
| H1H704P (antibody, V domains shown) VH: QVQLVESGGDVVQPGRSLRLSCAASGFTFSSYGMHWVRQAPGKGLEWVAIIWYDGSNKYYADSVKGRFTISRDNSKNTLYLQMNSLRVEDTAVYSCARDFSISSRHFDYWGQGTLVTVSS VL: DIQMTQSPSSLSASVGDRVTITCRASQAINNYLAWFQQKPGKAPKSLIYATSNLQSGVPSQFSGSGSGTDYTLTISSLQPEDFATYYCQQYYIYPITFGQGTRLEIK | 0.0939 | 1.96 | 0.39 | 0.0552 | 0.0362 | 12.5 | 0.331 | 1.43 | 0.484 | 1.03 | 0.818 | 0.558 |
| H1H742N (antibody, V domains shown) VH: DVQLLESGGDLVQPGGSLRLSCEASGFTFRNYVMIWVRQAPGKGLEWVSGISNSGGTTHYTDSVKGRFTISRDNSKNTLYLQINSLRAEDTAVYYCAKGYLDTSLIEGNWFDPWGQGTLVTVSS VL: NIVMTQSPLSLPVTPGEPASISCRSSQSLLHSNGFNYLNWFLQKPGQSPQLLIYLGSNRASGVPDKFSGSGSGTDFTLNINRVEAEDVGIYFCMQTLQTPLTFGGGTKVEIK | 0.0721 | 1.45 | 486 | 0.0382 | 0.0449 | 11.1 | 0.186 | 1.08 | 0.276 | 0.967 | 0.683 | 1.55 |
| H1H732N (antibody, V domains shown) VH: EVQLVESGGGLVRPGGSLRLSCAASGFTFTNAWMSWVRQAPGKGLEWIGQIKSKTDGGTIDYAAPVKGRFTVSRDDSENTLFLQMNSLKTEDTAVYYCAGNWNYVDFDYWGQGTLVTVSS VL: DIQMTQSPSSLSASVGDRVTITCRASQDIRNDLGWYQQKPGKAPKRLIYAASSLQGGVPSRFSGSGSGTEFTLTISSLQPEDFATYYCLQHNSYPFTFGPGTKVDIK | 0.132 | 1.22 | 264 | 0.00367 | 0.202 | 4.4 | 0.386 | 0.95 | 0.529 | 0.85 | 0.439 | 1.97 |
| H1H743N (antibody, V domains shown) VH: EVQLLESGGGLVQPGGSLRLSCAASGFTFRKYAMSWVRQAPGKGLEWVSVISVSGGNTYYADSVKGRFTISRDNSKNTLYLQLNSLRAEDTAVYYCAKDLTDIVLMVYVDYWGQGTLVTVSS VL: DIQMTQSPSSVSASVGDRVTITCRASQDIDRWLAWYQQKPGKAPKLLIYAASSLQSGVPSRFSGSGSGTDFTLTISTLQPEDFATYYCQQANSLPFTFGGGTKVEIK | 0.00971 | 18.6 | 2.35 | 0.55 | 0.00948 | 65.5 | 0.0882 | 4.23 | 0.124 | 3.88 | 0.0965 | 13 |

The remaining lines, values ahead:

| Kd [1] [nM] | T1/2 [1] [h] | Kd (Monomeric hAng-2FD) [nM] | T1/2 (Monomeric hAng-2FD) [h] | Kd [2] [nM] | T1/2 [2] [h] | Kd [3] [nM] | T1/2 [3] [h] | Kd [4] [nM] | T1/2 [4] [h] | Kd [5] [nM] | T1/2 [5] [h] | Binder |
| --- | --- | --- | --- | --- | --- | --- | --- | --- | --- | --- | --- | --- |
| 0.0559 | 2.53 | 2.84 | 0.0573 | 0.0475 | 8.9 | 0.234 | 1.03 | 0.0971 | 1.5 | 3.4 | 1.45 | H1H730N (antibody, V domains shown) VH: EVQLVESGGGLVQPGGSLRLSCAASGFAFRSYWMTWVRQAPGKGLEWVANIQQDGNDKYYVDSVKGRFTISRDNAKNSLYLQMNSLRAEDTAVYYCARDTGIAEAGPFDYWGQGTLVTVSS VL: DIQMTQSPSTLSASVGDRVSITCRASQTIISWLAWYQQKPGKAPRLLIYKASSLESGVPSRFSGSGSGTEFTLTINSLQPDDFATYYCQQYNRYWTFGQGTKVEIK |
| 0.0325 | 3.92 | 1.13 | 0.558 | 0.0125 | 30.6 | 0.118 | 1.82 | 0.177 | 1.6 | 0.407 | 2.38 | H1H749N (antibody, V domains shown) VH: QVQLVESGGGVVQPGRSLRLSCAASGFTFSSYGMHWVRQAPGKGLEWVAVIWYDEFNKYYADSVKGRFTISRDNSKNTLYLQMNSLRAEDTAVYYCARERESGYSYGFDYWGQGTLVTVSS VL: EIVMTQSPATLSVSPGERATLSCRAGQSVSSNLAWYQQKPGQAPRLLIYGASTRATGIPARFSGSGSGTEFTLTISSLQSEDFAVYYCQQYNNWWTFGQGTKVEIK |
| 0.0791 | 1.06 |  | 0.017 | 0.0274 | 11 | 0.201 | 0.84 | 0.357 | 0.783 | 0.164 | 0.888 | H1H706P (antibody, V domains shown) VH: QVQLVESGGGVVQPGRSLRLSCAASGFTFSSYGMHWVRQAPDKGLEWVAVKWDDGSNKYYADSVKGRFTISRDNSKNTLYLQMNSLRAEDTAVYYCAREGPYDFYSGYGAFDIWGQGTMVTVSS VL: DIQMTQSPSSLSASVGDRVTITCRASQGISNYLAWFQQKPGKAPKSLIYAASSLQSGVPSKFSGSGSGTDFTLTISSLQPEDFATYYCQQYNSYPRTFGQGTKVEIK |
|  |  |  |  |  |  | 0.262 | 0.443 | 0.328 | 0.573 | 0.283 | 0.372 | H1H707P (antibody, V domains shown) VH: QVQLVESGGGVVQPGRSLRLSCAASGFTFSSYGMHWVRQAPDKGLEWVAVKWDDGSNKYYADSVKGRFTISRDNSKNTLYLQMNSLRAEDTAVYYCAREGPYDFYSGYGAFDIWGQGTMVTVSS VL: not shown |
| 0.0233 | 5.38 | 2.4 | 0.222 | 0.0226 | 14.9 | 0.115 | 1.78 | 0.185 | 1.4 | 0.239 | 2.88 | H1H724N (antibody, V domains shown) VH: QVQLVESGGGVVQPGRSLRLSCAASGFTLSNYGMHWVRQAPGKGLEWVAVIWHDGSNTYYADSVKGRFTISRDNSKNTLYLQMNSLRAEDTAVYYCTREGLDFWSGYYPNWFDPWGQGTLVTVSS VL: DIQMTQSPSSLSASVGDRVTITCRASQGIRNDLGWYQQKPGKAPKRLIYAASNLQGGVPSRFSGSGSGTEFTLTISSLQPEDFAAYYCLQHNIYPLTFGGGTKVEIK |
